# Test results from the supplement of paper PMC12042874.
# ± gives the uncertainty stated by the source.
# Assay: amyloid nucleation score (Sup35N fusion, yeast selection) (log enrichment); library NNK2; higher = more nucleation; inactive = no reads after selection
# Summary of the method: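 Sup35N was fused to peptides of 20 random codons and expressed in psi-negative yeast, which were induced with 100 μM copper sulfate for 24 hours and then grown on medium lacking adenine and uracil for 7 days at 30°C. Plasmid inserts from input and output were sequenced on Illumina. The nucleation score is the DiMSum log enrichment of output over input reads, centred on the mode score of non-aggregating sequences. Sequences with under 100 input reads were left out, and random libraries had three technical output replicates.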
row,Substance,amyloid nucleation score
1,ELYWGS,0.509 ± 0.57
2,EMSGY,inactive
3,EMVQVVSAQGKTKL,8.461 ± 0.061
4,ENCFVSICVGSATLGMCSSG,8.02 ± 0.034
5,ENKGGCFARVDVGCVGSGMR,0.014 ± 0.42
6,ENLKCEPLGRVRLKDHVYVV,0.228 ± 0.27
7,ENNVKLIRNTTNTVVYHLIP,7.64 ± 0.06
8,EPHSAI,-0.1 ± 1
9,ERKHTFHAVGHGLQESLVRF,-0.212 ± 0.45
10,ERMSLMGWDFIKCRISLAMS,-0.021 ± 0.65
11,ERNLLRNSDDMD,-0.642 ± 1.1
12,ERYVCKGC,inactive
13,ESIRAGLRRSRLWNRGFGES,0.738 ± 0.27
14,ESLGDSI,-0.352 ± 1
15,ESNMSKLAFRRDTVF,inactive
16,ESRGSCSIKNYRLVWDC,-0.451 ± 0.74
17,ESSSVKPPVRFLW,0.455 ± 0.64
18,ESYIWMLRGHMLCKDEVMNV,-0.611 ± 0.74
19,ETLAVLRIPCSRLYDHIYNF,-0.791 ± 0.78
20,ETTNTQVNAIVRNFGQ,0.002 ± 0.55
21,EVEIEE,-0.576 ± 0.76
22,EVERGIN,0.62 ± 0.56
23,EVFACTSG,1.56 ± 0.44
24,EVMCMSRYDPR,-0.557 ± 1.1
25,EVRIDHGHVIA,0.293 ± 0.43

row,Substance,amyloid nucleation score
1,EWIIERRSL,-0.279 ± 0.63
2,EWVMKSWV,-0.578 ± 1.1
3,EYEYGGYNSMNLNYIVARSE,0.218 ± 0.48
4,EYLRPSWSH,-0.971 ± 0.56
5,EYNDRCV,0.974 ± 0.28
6,EYRYCMTHYYFLRCKLFNIF,-1.06 ± 0.63
7,FAAHCFDFMIHVPMGPAENK,3.69 ± 0.13
8,FACFI,0.271 ± 0.25
9,FAGWIYGCTDRMVCLCSGGF,inactive
10,FAHAIVSHDWDQRVRGWSGC,0.836 ± 0.41
11,FAKCHFSQSARYIY,inactive
12,FALLPCDKVCLGVREWFNFG,inactive
13,FANRILCVVSGINRVTGL,0.192 ± 0.34
14,FAPCNCSCVK,0.827 ± 0.58
15,FAYFDDLGVLMLYQLNRMSL,-0.097 ± 1.1
16,FCCHHCITGITEKAN,0.674 ± 0.36
17,FCEICPKYYALFEEGQLSGR,3.62 ± 0.068
18,FCESCKWNL,1.29 ± 0.14
19,FCIPYGGLIDTA,-1.52 ± 0.41
20,FCLIHVVM,1.32 ± 0.27
21,FCMAISFQCVNTRGFMPTAG,7.394 ± 0.071
22,FCRIAATTRHMHGGLVGRWS,1.04 ± 0.68
23,FCYAYTFMHEYLRGC,0.737 ± 0.3
24,FDALY,0.025 ± 0.25
25,FDFLSSFPRLWVRVEGIPCF,-0.994 ± 0.55

row,Substance,amyloid nucleation score
1,FDGLIFSITRTLVY,-1.42 ± 1.1
2,FDLCTLFYNSRFHIIRYWVT,inactive
3,FDQSFFNLPQGTFLVLYSSA,inactive
4,FDWFNAYSF,0.092 ± 0.61
5,FDYAQRWSQP,0.121 ± 0.49
6,FEIGSV,inactive
7,FELLPTR,3.3 ± 0.079
8,FEMGFHVWDM,inactive
9,FENDFMRVSCDGSRGILCVL,2.48 ± 0.11
10,FEPWWCNSIMRLVVIEGEW,0.315 ± 0.46
11,FFCMA,5.48 ± 0.056
12,FFDRMLYLRVARCTTFWPVD,0.492 ± 0.64
13,FFDYIGRYYNLKH,inactive
14,FFFDDSKVYQNWEEDVEGNQ,-0.389 ± 0.34
15,FFFKSSLLR,0.241 ± 0.8
16,FFFVFVGDVR,2.08 ± 0.15
17,FFGAFGPRWGNYENITLCSY,inactive
18,FFIGIQQWSYHWPVVGVYNK,inactive
19,FFKLNVRERYWLVKGKSRFR,2.96 ± 0.087
20,FFMYHAVL,1.02 ± 0.34
21,FFNLNYMGFHSDIGSLIYPC,inactive
22,FFTMCVAMYVVRSAYGMHN,-0.03 ± 0.44
23,FFTRRLNSNWMCFLADNCYR,-0.439 ± 0.64
24,FFWFQTSLDTPWKEVILVYI,-0.719 ± 0.79
25,FFWNM,-0.274 ± 0.34

row,Substance,amyloid nucleation score
1,FGCNSSGWNVKIPSGGLGNE,-0.647 ± 0.53
2,FGDVQKPVRMLFVFSFWLLG,-0.392 ± 0.79
3,FGFCGFMVHVGLVRDFLFC,0.257 ± 0.56
4,FGFSEGEMVPSFI,-1.21 ± 1
5,FGFVTKYFMGV,1.96 ± 0.23
6,FGIFVNRLCFSIDSYAGNGK,6.605 ± 0.037
7,FGKFFCCWSSLRNEKCYFAM,inactive
8,FGKNYNFCNV,-0.184 ± 0.63
9,FGKYDGTYRSPVGYGFMWS,0.397 ± 0.41
10,FGLDYVTYVRWAGVCHLLYF,-0.56 ± 0.55
11,FGLLLWYLCFSHIG,inactive
12,FGLQMQAWREKDHQENGLIQ,0.798 ± 0.31
13,FGLTRPEKWEHLHVYCNYMS,0.615 ± 0.38
14,FGLWQVPSGWNTADRA,0.743 ± 0.58
15,FGMILPFGDIFTLASDFRVR,-0.833 ± 1.1
16,FGSLTMEEFGDGDVVSNNKG,-0.956 ± 0.31
17,FGSVSSWELPRP,0.197 ± 0.63
18,FGTKHFVICSL,-0.989 ± 0.76
19,FGYFNVHSKSSGIMKWCGQC,-0.612 ± 0.54
20,FGYFYMKHLTPALMPYTGY,-0.441 ± 1.1
21,FGYMCEAPHRVDFRLFELLQ,inactive
22,FHDNVTQFFISISAKIYKA,4.45 ± 0.058
23,FHGHQPYFWNVL,0.326 ± 0.54
24,FHLRWRFSSSSNNITRRRCR,0.115 ± 1
25,FHNLASFVRKSRVYQHKRNA,-0.231 ± 0.63

row,Substance,amyloid nucleation score
1,FHQIKFRVSFMHCRTSSANI,2.25 ± 0.089
2,FHRCSYLVT,2.95 ± 0.09
3,FHRNMMVLQCIRRVL,0.016 ± 1.1
4,FHSRAEICLIWNHIVQDWRN,3.58 ± 0.071
5,FHVKIGW,-0.086 ± 0.33
6,FIDIKSICCRHMNDWHCLSE,-0.603 ± 0.32
7,FIFLNNIHTYIYYVR,6.292 ± 0.034
8,FIGVSGLRCRGVMCSCYASY,1.53 ± 0.17
9,FIHTRRCKYGWTSRFKTLTW,0.105 ± 1.1
10,FIILI,-1.29 ± 0.54
11,FIIVK,-1.32 ± 0.41
12,FILDGSPVYWAIWKGG,-1.46 ± 0.78
13,FIMYFVASRVNSYSSTLRVN,inactive
14,FINNNNGAPSRVHPTGALTR,-0.357 ± 0.53
15,FIPYNSW,0.689 ± 0.16
16,FIRHSTSALGP,0.889 ± 0.43
17,FISSSYSKEFSIYEFIDIFR,-0.539 ± 0.54
18,FITDYTWTYLHAWLFIHQGV,-0.705 ± 1.1
19,FKAVS,-0.291 ± 1.1
20,FKFKLGNGIMDGSRMGHWAL,1.17 ± 0.47
21,FKGHHGHKVWETH,-0.145 ± 1.1
22,FKGVCCMHNELASIDQWVGG,0.192 ± 0.56
23,FKILFLAHRLTGLFKSSTGF,inactive
24,FKLGGSNVDDFFVFNWITVF,-0.596 ± 0.76
25,FKRDLMLYFCCSWCRKVCVY,-0.432 ± 0.34

row,Substance,amyloid nucleation score
1,FKSLLCLFAWRLVTFHVGE,-0.73 ± 1.1
2,FKTVCVGKCLVFMVTDAELI,-1.49 ± 0.76
3,FKYVFCSDEVGSMYVMCNCM,8.568 ± 0.034
4,FLDKCVRSSIENYWV,-0.074 ± 1.1
5,FLFQWLLEKPYFYPAFCKCK,4.49 ± 0.061
6,FLFVNDVGRE,inactive
7,FLGTHVHANCSGYMVMIVYR,7.773 ± 0.041
8,FLIFSYIGLFSVISYRSARV,inactive
9,FLIRDLAMHSSCSGSAIMIT,-0.713 ± 0.37
10,FLKIYPIPNCYERCCVHLPP,0.06 ± 0.61
11,FLLPGCSLIFFYCSGCSMV,5.014 ± 0.031
12,FLMANSFFCNCFYTVYFTHC,4.52 ± 0.047
13,FLMISWSLWGFFLY,inactive
14,FLMYK,-0.75 ± 0.76
15,FLRYHNAGALENIRYVSCLC,-0.253 ± 0.56
16,FLSYFCIIFSTNLKLSSK,2.1 ± 0.15
17,FLSYLN,-0.322 ± 0.5
18,FLVIVQPSHFGCSKSNKGVW,0.453 ± 0.66
19,FLVLGFMIWYTLRCLALTFS,inactive
20,FLWKRVVLSREEMAMDTTGS,5.47 ± 0.066
21,FLWYGISVI,0.02 ± 0.4
22,FLYNFSHIRFVMYNRNESCF,3.48 ± 0.13
23,FMIMNYNQLCINRCLNGGRV,9.059 ± 0.044
24,FMLQVVGRVEVFH,3.32 ± 0.066
25,FMLRTAQSHISSTVTSVKQA,0.064 ± 0.4

row,Substance,amyloid nucleation score
1,FMMELCLALYLLSYQ,0.061 ± 0.8
2,FMNLTLGIYKDFITFMMYVS,1.83 ± 0.12
3,FMSIFDWSCVWFYLCKGTWD,-1.75 ± 0.54
4,FMSRTWLAYFTCKMLHGLLR,0.863 ± 0.41
5,FMSVFTSAFLISHIMLV,0.21 ± 1
6,FMYLPL,-0.596 ± 0.3
7,FNFVMLYPTPAGSAKFVGCI,2.85 ± 0.19
8,FNGLSSFSFMLIGTGFDISC,-0.934 ± 0.64
9,FNRLA,-0.603 ± 1.1
10,FNSLILQIIVVRV,7.843 ± 0.04
11,FNTRMSIKSGNMTWSNYYWF,5.771 ± 0.053
12,FNVAGRRRISGTNLY,-0.159 ± 1.1
13,FNVDKRPRSDVCLAGCISD,-0.825 ± 0.56
14,FNVSVGMMNFRMERLGI,-0.819 ± 0.42
15,FPAQPAVRSRSACWYVLQVR,0.111 ± 0.49
16,FPASHRVVQV,5.41 ± 0.065
17,FPFLDGVVLSKEFYNLR,-1 ± 1
18,FPGLDGNQMFRLC,0.42 ± 0.66
19,FPGRSSCDHTAMWLL,0.732 ± 0.4
20,FPIAVVKRALDLAVNGLESD,0.021 ± 0.44
21,FPMFSYTSMHYGH,1.83 ± 0.17
22,FPNLFYFADYVLICNLMIKL,4.585 ± 0.029
23,FPQFNRIWSSNFFAHIEGLN,-1.85 ± 0.44
24,FPTFFCLAIIWKYMFLLIKF,-0.238 ± 1.1
25,FPTFQSLRDPRHMLFRGNFM,-0.317 ± 1.1
